B1: A5 protein: recombinant full length human ALG5 protein (SEQ ID NO: 9) (protein, listed as Homo sapiens)
chain: MAPLLLQLAVLGAALAAAALVLISIVAFTTATKMPALHRHEEEKFFLNAKGQKETLPSIWDSPTKQLSVVVPSYNEEKRLPVMMDEALSYLEKRQKRDPAFTYEVIVVDDGSKDQTSKVAFKYCQKYGSDKVRVITLVKNRGKGGAIRMGIFSSRGEKILMADADGATKFPDVEKLEKGLNDLQPWPNQMAIACGSRAHLEKESIAQRSYFRTLLMYGFHFLVWFLCVKGIRDTQCGFKLFTREAASRTFSSLHVERWAFDVELLYIAQFFKIPIAEIAVNWTEIEGSKLVPFWSWLQMGKDLLFIRLRYLTGAWRLEQTRKMN
B2: U5A protein: recombinant full length human UNC5A protein (SEQ ID NO: 5) (protein, listed as Homo sapiens)
chain: MAVRPGLWPALLGIVLAAWLRGSGAQQSATVANPVPGANPDLLPHFLVEPEDVYIVKNKPVLLVCKAVPATQIFFKCNGEWVRQVDHVIERSTDGSSGLPTMEVRINVSRQQVEKVFGLEEYWCQCVAWSSSGTTKSQKAYIRIAYLRKNFEQEPLAKEVSLEQGIVLPCRPPEGIPPAEVEWLRNEDLVDPSLDPNVYITREHSLVVRQARLADTANYTCVAKNIVARRRSASAAVIVYVDGSWSPWSKWSACGLDCTHWRSRECSDPAPRNGGEECQGTDLDTRNCTSDLCVHTASGPEDVALYVGLIAVAVCLVLLLLVLILVYCRKKEGLDSDVADSSILTSGFQPVSIKPSKADNPHLLTIQPDLSTTTTTYQGSLCPRQDGPSPKFQLTNGHLLSPLGGGRHTLHHSSPTSEAEEFVSRLSTQNYFRSLPRGTSNMTYGTFNFLGGRLMIPNTGISLLIPPDAIPRGKIYEIYLTLHKPEDVRLPLAGCQTLLSPIVSCGPPGVLLTRPVILAMDHCGEPSPDSWSLRLKKQSCEGSWEDVLHLGEEAPSHLYYCQLEASACYVFTEQLGRFALVGEALSVAAAKRLKLLLFAPVACTSLEYNIRVYCLHDTHDALKEVVQLEKQLGGQLIQEPRVLHFKDSYHNLRLSIHDVPSSLWKSKLLVSYQEIPFYHIWNGTQRYLHCTFTLERVSPSTSDLACKLWVWQVEGDGQSFSINFNITKDTRFAELLALESEAGVPALVGPSAFKIPFLIRQKIISSLDPPCRRGADWRTLAQKLHLDSHLSFFASKPSPTAMILNLWEARHFPNGNLSQLAAAVAGLGQPDAGLFTVSEAEC

Test system: BLM-induced pulmonary fibrosis
Assay: BLM-induced established pulmonary fibrosis in mice, treatment d14-d21
Assay type: in vivo
Settings: for BLM-induced pulmonary fibrosis (overall): mice, 1.0 U/kg BLM IT, protein 7.5 mg/kg/d IP daily for 7 days starting d14; for BLM-induced pulmonary fibrosis (overall) / lung compliance / lung elastance: d21; for BLM-induced fibrogenic marker proteins (Col1, FN, TN-C, α-SMA) in whole lung homogenates / body weight / collagen and other extracellular matrix deposits (Trichrome staining of lung sections) / fibrogenic marker transcripts in whole lung homogenates / lung weight / lung compliance / lung elastance / whole lung total hydroxyproline: protein 7.5 mg/kg/d IP, 7 days starting d14 after BLM; for lung compliance / lung elastance: flexiVent; for whole lung total hydroxyproline: lung homogenates
Experimental: FIGS. 9A-9O. M9 peptide and protein mitigated BLM-induced pulmonary fibrosis. Mice exposed to saline or 1.0 U/kg BLM by intratracheal instillation were treated with or without M9 peptide HGHVDPVKTPKI (SEQ ID NO: 4) (10 mg/kg/d) and M9 protein (SEQ ID NO: 1) 7.5 mg/kg/d) via IP injection daily for 7 days starting d14 after BLM injury. FIG. 9A: Representative micro-CT images at d21 after BLM exposure. FIG. 9B: Lung volumes were measured by quantitative-CT renditions. Lung compliance (FIG. 9C) and elastance (FIG. 9D) were measured using a flexiVent system. Lung weights (FIG. 9E) and body weights (FIG. 9F) are presented as bar graphs. Lung homogenates were tested for hydroxyproline (FIG. 9G), soluble collagen (FIG. 9H), pro-fibrogenic marker proteins (FIG. 9I) and mRNAs (FIG. 9J). Bars indicate mean±SD. Statistical significance (*P<0.05, **P<0.01, ***P<0.001 and ****P<0.0001) was assessed by one-way ANOVA with Turkey's multiple comparison. fLfs isolated from IPF lungs treated with PBS or recombinant full length M9 (rM9^FL) protein (2 μg/ml) for 48 h in vitro were tested for pro-fibrogenic proteins (FIG. 9L). fLfs (from IPF lungs) treated with PBS or extracellular domain of rM9^FL protein (rM9^ECD) as in FIG. 9L were tested for pro-fibrogenic proteins (FIG. 9N). The survival the mice treated with rM9^FL is shown FIG. 9M.
FIGS. 10A-10K. UNC5A (“U5”) peptide/protein mitigated BLM-induced pulmonary fibrosis. Mice exposed to saline or 1.0 U/kg BLM by intratracheal instillation were treated with or without U5 peptide (50 residues, SEQ ID NO: 7) (10 mg/kg/d) and full length U5 protein (SEQ ID NO: 5) (7.5 mg/kg/d) via IP injection daily for 7 days starting d14 after BLM injury. FIG. 10A: Representative micro-CT images at d21 after BLM exposure. FIG. 10B: Lung volumes were measured by quantitative-CT renditions. Lung compliance (FIG. 10C) and elastance (FIG. 10D) were measured using a flexiVent system. Lung weights (FIG. 10E) and body weights (FIG. 10F) are presented as bar graphs. Lung homogenates were tested for hydroxyproline (FIG. 10G), soluble collagen (FIG. 10H), pro-fibrogenic marker proteins (FIG. 10I) and mRNAs (FIG. 10J). Bars indicate mean±SD. Statistical significance (*P<0.05, **P<0.01, ***P<0.001 and ****P<0.0001) was assessed by one-way ANOVA with Turkey's multiple comparison.
FIGS. 11A-11K. ALG5 (“A5”) protein mitigated BLM-induced pulmonary fibrosis. Mice exposed to saline or 1.0 U/kg BLM by intratracheal instillation were treated with or without A5 protein (SEQ ID NO: 9) (7.5 mg/kg/d) via IP injection daily for 7 days starting d14 after BLM injury. FIG. 11A: Representative micro-CT images at d21 after BLM exposure. FIG. 11B: Lung volumes were measured by quantitative-CT renditions. Lung compliance (FIG. 11C) and elastance (FIG. 11D) were measured using a flexiVent system. Lung weights (FIG. 11E) and body weights (FIG. 11F) are presented as bar graphs. Lung homogenates were tested for hydroxyproline (FIG. 11G), soluble collagen (FIG. 11H), pro-fibrogenic marker proteins (FIG. 11I) and mRNAs (FIG. 11J). Bars indicate mean±SD. *P<0.05, **P<0.01, ***P<0.001 and ****P<0.0001 were obtained by one-way ANOVA with Turkey's multiple comparison.
FIGS. 12A-12E. WT mice with BLM-PF were treated with or without rM9^ECD (1.5 mg/kg) via intratracheal (IT) instillation daily for 7 d starting d 14 after BLM. Survival (FIG. 12A), body weights (FIG. 12B), lung volumes (FIG. 12C) and lung weights (FIG. 12D) were measured on d 21 post-BLM. Lung homogenates were tested for soluble collagen (FIG. 12E).
FIGS. 13A-13B. FIG. 13A: fLfs (IPF) treated with PBS or M9^mAb (2 μg/ml) or control IgG, tested for pro-fibrogenic proteins (i) and mRNAs (ii). FIG. 13B: WT mice with BLM-PF were left untreated, or intraperitoneal (IP) injected with control IgG or M9^mAb (2.5 mg/kg) daily for 7 d starting 14 d after IT BLM. Body weights (i) and total lung hydroxyproline (ii), and soluble collagen (iii) were measured. […]

Row | Molecule | BLM-induced pulmonary fibrosis (overall) | BLM-induced pulmonary fibrosis (overall) (listed as A5^FL) | BLM-induced pulmonary fibrosis (overall) (listed as ALG5 (A5) Protein) | BLM-induced fibrogenic marker proteins (Col1, FN, TN-C, α-SMA) in whole lung homogenates | body weight | collagen and other extracellular matrix deposits (Trichrome staining of lung sections) | fibrogenic marker transcripts in whole lung homogenates | lung weight | lung compliance | lung elastance | whole lung total hydroxyproline | BLM-induced pulmonary fibrosis (overall) (listed as Full Length U5A Protein) | BLM-induced pulmonary fibrosis (overall) (listed as U5a^FL) | BLM-induced pulmonary fibrosis (overall) (listed as U5 protein)
1 | B1 | mitigated | mitigated | Mitigated | inhibition | improvement | reduction | inhibition | reduction | improved | improved | reduction |  |  | 
2 | B2 |  |  |  | inhibition | improvement | reduction | inhibition | reduction | improved | improved | reduction | Mitigated | mitigated | mitigated
